{
  "source": "paper doi:10.1101/291427",
  "molecular_target": "T1, CSEP0064/BEC1054 (Blumeria graminis) (UniProt N1JJ94)",
  "T1 sequence": "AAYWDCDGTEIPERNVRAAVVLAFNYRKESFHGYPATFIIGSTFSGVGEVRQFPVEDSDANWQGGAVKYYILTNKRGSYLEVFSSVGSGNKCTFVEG",
  "assay": "NMR",
  "data": [
    {"substance": "SRL DNA oligonucleotide", "values": [
      {"measurement": "Kd", "value": "> 10", "unit": "µM"}
    ]}
  ]
}
